# Data from IntAct's records for PubMed 23066109.
# B1: Tudor domain-containing protein 3 (Homo sapiens), Q9H7E2 (parent)
# chain: MLRLQMTDGHISCTAVEFSYMSKISLNTPPGTKVKLSGIVDIKNGFLLLNDSNTTVLGGEVEHLIEKWELQRSLSKHNRSNIGTEGGPPPFVPFGQKCVSHVQVDSRELDRRKTLQVTMPVKPTNDNDEFEKQRTAAIAEVAKSKETKTFGGGGGGARSNLNMNAAGNRNREVLQKEKSTKSEGKHEGVYRELVDEKALKHITEMGFSKEASRQALMDNGNNLEAALNVLLTSNKQKPVMGPPLRGRGKGRGRIRSEDEEDLGNARPSAPSTLFDFLESKMGTLNVEEPKSQPQQLHQGQYRSSNTEQNGVKDNNHLRHPPRNDTRQPRNEKPPRFQRDSQNSKSVLEGSGLPRNRGSERPSTSSVSEVWAEDRIKCDRPYSRYDRTKDTSYPLGSQHSDGAFKKRDNSMQSRSGKGPSFAEAKENPLPQGSVDYNNQKRGKRESQTSIPDYFYDRKSQTINNEAFSGIKIEKHFNVNTDYQNPVRSNSFIGVPNGEVEMPLKGRRIGPIKPAGPVTAVPCDDKIFYNSGPKRRSGPIKPEKILESSIPMEYAKMWKPGDECFALYWEDNKFYRAEVEALHSSGMTAVVKFIDYGNYEEVLLSNIKPIQTEAWEEEGTYDQTLEFRRGGDGQPRRSTRPTQQFYQPPRARN
# Variants of: B1
# Details: with rpb1_human POLR2A
row,effect of a mutation on the interaction,Variant
1,disrupting interaction,Y566F
2,increasing interaction,Y566W
3,decreasing interaction,W567S
4,disrupting interaction,D569A

# Variants of: B1
# Details: with rpb1_human POLR2A
# Remark: another data set of the same source
row,effect of a mutation on the interaction,Variant
1,with no effect,Y566F
